Laboratory results as given in IntAct's records for PubMed 15604664.

B1: Floral homeotic protein … (Arabidopsis thaliana (Mouse-ear cress)), P48007 (parent)
chain: MGRGKIEIKRIENANNRVVTFSKRRNGLVKKAKEITVLCDAKVALIIFASNGKMIDYCCPSMDLGAMLDQYQKLSGKKLWDAKHENLSNEIDRIKKENDSLQLELRHLKGEDIQSLNLKNLMAVEHAIEHGLDKVRDHQMEILISKRRNEKMMAEEQRQLTFQLQQQEMAIASNARGMMMRDHDGQFGYRVQPIQPNLQEKIMSLVID

Variants of: B1
Conditions: with sep3_arath SEP3, O22456
Chain of sep3_arath SEP3, O22456 (O22456 whole entry): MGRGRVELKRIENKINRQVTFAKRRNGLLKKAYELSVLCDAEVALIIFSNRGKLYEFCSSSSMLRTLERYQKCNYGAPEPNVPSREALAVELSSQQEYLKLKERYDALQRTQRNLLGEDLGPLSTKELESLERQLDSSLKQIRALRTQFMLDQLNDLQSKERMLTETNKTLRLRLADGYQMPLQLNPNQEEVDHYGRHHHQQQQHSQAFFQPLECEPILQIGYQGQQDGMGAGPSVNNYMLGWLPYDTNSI

effect of a mutation on the interaction	Variant
decreasing interaction	MGRGKIEIKRIENANNRVVTFSKRRNGLVKKAKEITVLCDAKVALIIFASNGKMIDYCCPSMDLGAMLDQYQKLSGKKLWDAKHENLSNEIDRIKKENDSLQLELRHLKGEDIQFLNLIILMAVEHAIEHGLDKVRDHQMEILISKRRNEKMMAEEQRQLTFQLQQQEMAIASNARGMMMRDHDGQFGYRVQPIQPNLQEKIMSLVID [S115F;K119I;N120I]
decreasing interaction	MGRGKIEIKRIENANNRVVTFSKRRNGLVKKAKEITVLCDAKVALIIFASNGKMIDYCCPSMDLGAMLDQYQKLSGKKLWDAKHENLSNEIDRIKKENDSLQLELRHLKGEDIQSLNLKNLMADEHAIEHGLDKVRDHQMEILISKRRNEKMMAEEQRQLTFQLQQQEMAIASNARGMMMRDHDGQFGYRVQPIQPNLQEKIMSLVID [V124D]
decreasing interaction	MGRGKIEIKRIENANNRVVTFSKRRNGLVKKAKEITVLCDAKVALIIFASNGKMIDYCCPSMDLGAMLDQYQKLSGKKLWDAKHENLSNEIDRIKKENGSLQLELRHLKGEDIQSLNLKNLMAVEHAIEHGLDKVRDHQMEILISKRRNEKMMAEEQRQLTFQLQQQEMAIASNARGMMMRDHDGQFGYRVQPIQPNLGEKIMSLVID [D99G;Q199G]
decreasing interaction	MGRGKIEIKRIENANNRVVTFSKRRNGLVKKAKEITVLCDAKVALIIFASNGKMIDYCCPSMDLGAMLDQYQKLSGKKLWDAKHENLSNEIDRIKKENDSLQLEPRHLKGEAIQSLNLKNLMAVGHAIEHGLDKVRDHQMEILISKRRNEKMMAEEQRQLTFQLQQQEMAIASNARGMMMRDHDGQFGYRVQPIQPNLQEKIMSLAID [L105P;D112A;E125G;V206A]
decreasing interaction	MGRGKIEIKRIENANNRVVTFSKRRNGLVKKAKEITVLCDAKVALIIFASNGKMIDYCCPSMDLGAMLDQYQKLSGKKLWDAKHENLSNEIDRIKKENDSLQLELRHLKGEDIQSPNLKNLMAVEHAIEHGLDKVRDHQMEILISKRRNEKTMAEEQRQLTFQLQQQEMAIASNARGMMMRDHDGQFGYRVQPIQPNLQEKIMSLVID [L116P;M152T]
decreasing interaction	MGRGKIEIKRIENANNRVVTFSKRRNGLVKKAKEITVLCDAKVALIIFASNGKMIDYCCPSMDLGAMLDQYQKLSGKKLWDAKHENLSNEIDRIKKENDSLQLELRHLKGEDIQSLNLKNLMAVGHAIEHGLDKVRDHQMEILISKRRNEKMMAEEQRQLTFQLQQQEMAIASNARGMMMRDHDGQFGYRVQPIQPNLQEKIMSLVID [E125G]
decreasing interaction	MGRGKIEIKRIENANNRVVTFSKRRNGLVKKAKEITVLCDAKVALIIFASNGKMIDYCCPSMDLGAMLDQYQKLSGKKLWDAKHENLSNEIDRIKKENDSLQLELRHLKGEDIQSLNPKNLMAVEHAIEHGLDKVRDHQMEILISKRRDEKMMAEEQRQPTFQLQQQEMAIASNARGMMMRDHDGQFGYRVQPIQPNLQEKIMSLVID [L118P;N149D;L160P]
decreasing interaction	MGRGKIEIKRIENANNRVVTFSKRRNGLVKKAKEITVLCDAKVALIIFASNGKMIDYCCPSMDLGAMLDQYQKLSGKKLWDAKHENLSNEIDRIKKENDSLQLELRHLKGEGIQSLNLKNLMAVEHAIEHGLDKVRDHQMEILISKRRNEKMMAEEQRQLTFQLQQQEMAIASNAGGMMMRDHDGQFGYRVQPIQPNLQEKIMSLVID [D112G;R176G]
decreasing interaction	MGRGKIEIKRIENANNRVVTFSKRRNGLVKKAKEITVLCDAKVALIIFASNGKMIDYCCPSMDLGAMLDQYQKLSGKKLWDAKHENLSNEIDRIKKENDSLQLELRHLKGEDIQSLNLKNPMAVEHAIEHGLDKVRDHQMEILISKRRNEKMMAEEQRQLTFQLQQQEMAIASNARGMMMRDHDGQFGYRVQPIQPNLQEKIMSLVID [L121P]
decreasing interaction	MGRGKIEIKRIENANNRVVTFSKRRNGLVKKAKEITVLCDAKVALIIFASNGKMIDYCCPSMDLGAMLDQYQKLSGKKLWDAKHENLSSEIDRIKKENDSLQLELRHLKGEDIQSLNLKNLMAVEHAIEHGLDKVRDHQMEILISKRRNEKVMAEEQRQLTFQLQQQEMAIASNARGMMMRDHDGQFGYRVQPIQPNLQEKIMSLVID [N89S;M152V]
decreasing interaction	MGRGKIEIKRIENANNRVVTFSKRRNGLVKKAKEITVLCDAKVALIIFASNGKMIDYCCPSMDLGAMLDQYQKLSGKKLWDAKHENLSNEIDRIKKENDSLQLELRHLKGEDIQSLNLKNLKAVEHAIEHGLDKVRDHQMKILISKRRNEKMMAEEQRQLTFQLQQQEMAIASNARGVMMRDHDGQFGYRVQPIQPNLQEKIMSLVID [M122K;E141K;M178V]

Variants of: B1
Conditions: with sep3_arath SEP3, O22456
Remark: another data set of the same source

effect of a mutation on the interaction	Variant
increasing interaction	MGRGKIEIKRIENANNRVVTFSKRRNGLVKKAKEITVLCDAKVALIIFASNGKMIDYCCPSMDLGAMLDQYQKLSGKKLWDAKHENLSNEIDRIKKENDSLQLELRHLKGEDIQSLNLKNLMAVEHAIEHGLDKVRDHQMEILISKRRNEKMMAEEQRQLTFQLQQPEMAIASNARGMMMRDHDGQFGYRVQPIQPNLQEKIMSLVID [Q167P]
increasing interaction	MGRGKIEIKRIENANNRVVTFSKRRNGLVKKAKEITVLCDAKVALIIFASNGKMIDYCCPSMDLGAMLDQYQKLSGKKLWDAKHENLSNEIDRIKKENDSLQLELRHLKGEDIQSLNLKNLMAVEHAIEHGLDKVRDHQMEILISKRRNEKMMAEEQRQLTFQLQQQEMAIASNARPMMMRDHDGQFGYRVQPIQPNLQEKIMSLVID [G177P]
